Series [1] addresses DosR (D54E, activated form; called DosR/wild type in EMSA) D54E (Mycobacterium tuberculosis) (UniProt P9WMF9). Nature of the series: EMSA. Background: Mobility shift assays separate free from complexed probe on a gel.
The target of series [2] is DosR M194term (helix alpha10 truncated) D54E;del194-217 (Mycobacterium tuberculosis) (UniProt P9WMF9). Nature of the series: EMSA.

We go through one sequence from paper doi:10.1101/2025.10.11.681782.

Regarding “GGCGGTTGGCAGACAACAGGGTCAATGGTCCCCAAGTGGATCACCGACGGGCGCGGACAAATGGCCCGCGCTTCGGGGACTTCTGTCCCTAGCCCTGGCCACGATGGGCTGGTCGGATCAAAGGCATCCGTTTCCATCGATTAGGAGGCAGGCACGTACGAAGGAAGGAT (double strand) [hspX promoter PCR product]”, the binding result in series [1] is reported as “binds”; in series [2] it was “binds more weakly”.
